Experimental findings from patent publication US20220325265A1, “GLUCOCEREBROSIDASE MUTANTS” (Hoffmann-la Roche Inc., priority 2019, published 2022) are described below.

“And” between values parts separate entries of the source, which are not always exact repeats. Equal entries are not always repeated.

For data set [1], the target named is hGCase. The data set can be described thus: Inhibition of hGCase using isofagomine (IFG), IC50 determination. It counts as biochemical, human. The following applies: reversible inhibitor isofagomine on the named hGCase variant; 25 nM protein, 10 min pre-incubation at RT, 20 μM res-β-glc. The protocol: IFG is a competitive, reversible inhibitor of hGCase, interacting with the active pocket of the enzyme (Powe et al., 2006).
To calculate the IC50, a concentration range of 0.002-100 μM IFG was tested. IFG was prepared with a stock concentration of 1 mM in DMSO. The final enzyme concentration was 25 nM. After adding the inhibitor to the enzyme, the solution was pre-incubated for 10 min at RT before adding the substrate (20 μM) for the activity measurement.
The evaluation and IC50 determination were done using GraphPad Prism7. hGCase activity with no inhibitor added was set to 100% relative enzyme activity. In case of evaluating the raw data via GraphPadPrism7, the applied inhibitor concentrations were first transformed to log 10×-values plottet on the x-axis. Further, the raw data measured with the activity assay in RFU was normalized to the highest activity value within one data set (equals 100%). 100% signal was defined as 10-12 μM IFG (=no inhibitor added). Data points were fitted and IC50 values were determined using log(inhibitor) vs. response-variable slope (four parameters) (GraphPadPrism7) following equation 9: […]
To determine whether the active binding site of an enzyme is compromised or altered, IC50 values were calculated for active site inhibitor and compared. In this work, the natural occurring GCase inhibitor isofagomine (IFG) and conditurol-β-epoxide (CBE) were used. IFG is known as a reversible inhibitor, interacting with the active site of the GCase enzyme, whereas CBE is an irreversible inhibitor of GCase (Powe et al., 2006). The IC50 of an enzyme is defined as the concentration of an inhibitor, where the response, in this case the enzyme activity, is reduced by half (Kalliokoski et al., 2013). Both assays were conducted as described in section 2.5.6. The inhibitor profiles of M53T/P55T using IFG and CBE as well as the IC50 profiles of all residual mutants combined are shown in FIG. 4.
The raw data was plotted by transforming the applied IFG/CBE concentration to a logarithmic scale (x-axis, FIG. 4) and by normalizing the activity signal with highest signal of each data set to 100% (defined with apparent inhibitor concentration of 10-12 μM, equal to no inhibitor). IC50 values were calculated using GraphPad Prism7 following equation 9.

A short description of data set [2]: Heat inactivation at 55° C., residual GCase activity of purified protein. It counts as physicochemical. The following applies: for residual GCase activity after heat inactivation: 55° C. waterbath, 50 nM protein, initial activity = 100%; for residual activities after 5 and 10 min of incubation (in words): 55° C., compared to R495HS2. On the procedure:
For all further GCase characterization experiments including the activity assay, 20 μM substrate concentration, 30-40 min incubation time and protein concentrations ranging from 25-100 nM were set as final assay settings to ensure measurements in the linear range. The overall DMSO concentration within the assay was kept at 0.5% (v/v) or even below, since DMSO influences the fluorescent signal with higher concentrations (experimentally tested, data not shown; confirmed by (Urban et al., 2008). Therefore, GCase activity buffer+1% (v/v) DMSO was also used for dilutions (table 2.9). The plate reader SpectraMax i3 (Molecular Devices) including the analysis software SoftMax Pro 6.4 was used for all activity measurements within this work. The program settings were kept the same for all activity runs: kinetic run, measurement temperature: 37° C., PMT Gain: high; flashes per read: 6; read height: 0.73305 mm from plate.
Another approach to test the mutants for thermal stability is the irreversible heat inactivation at 55° C. (Futami et al., 2017; Zale & Klibanov, 1986). As initial screening to select for most promising candidates, this thermal stability approach was chosen (section 3.1.1). For this, supernatant samples of each construct were taken from the 30 ml S2 cell cultures, respectively (section 2.2). The protein concentration was not adjusted. The samples were incubated for 40 min in total at 55° C. (PCR Cycler Mastercycler gradient, Eppendorf) using PCR plates (FrameStar®96 well skirted PCR plate, 4titude Ltd.). Samples were taken after 5, 7, 10, 15, 20, 30 and 40 min for residual activity measurements. The activity assay was performed as described in section 2.3.5. The initial activity of each mutant was set to 100% before heating. Residual activities were calculated in regard to the initial activity. Data points were fitted using the one phase decay fit by GraphPad Prism7 following equation 3: […]
For the heat inactivation experiment of purified protein (see section 3.3.3), hGCase protein samples were prepared with a final concentration of 50 nM, diluted in hGCase activity buffer, pH 6.0 (table 2.9) and incubated for 5 and 10 minutes in the waterbath (Julabo 5A, Julabo) at 55° C.
The second approach was aimed to test residual GCase activity after thermal inactivation at a fixed temperature. With this additional approach, the focus was set on activity-based changes with increased incubation time (Futami et al., 2017; Zale & Klibanov, 1986). Here, samples were incubated for 5 and 10 minutes in the waterbath at 55° C. Residual GCase activities were measured with the initial activity set to 100% (before heating). FIG. 2 depicts calculated residual activities for tested mutants after incubation.

B1: R495HS2: hGCase based on the Cerezyme sequence (R495H) but produced in S2 cells, His8-tagged; Seq. Id. No. 1 (protein, listed as Homo sapiens)
chain: ARPCIPKSFGYSSVVCVCNATYCDSFDPPTFPALGTFSRYESTRSGRRMELSMGPIQANHTGTGLLLTLQPEQKFQKVKGFGGAMTDAAALNILALSPPAQNLLLKSYFSEEGIGYNIIRVPMASCDFSIRTYTYADTPDDFQLHNFSLPEEDTKLKIPLIHRALQLAQRPVSLLASPWTSPTWLKTNGAVNGKGSLKGQPGDIYHQTWARYFVKFLDAYAEHKLQFWAVTAENEPSAGLLSGYPFQCLGFTPEHQRDFIARDLGPTLANSTHHNVRLLMLDDQRLLLPHWAKVVLTDPEAAKYVHGIAVHWYLDFLAPAKATLGETHRLFPNTMLFASEACVGSKFWEQSVRLGSWDRGMQYSHSIITNLLYHVVGWTDWNLALNPEGGPNWVRNFVDSPIIVDITKDTFYKQPMFYHLGHFSKFIPEGSQRVGLVASQKNDLDAVALMHPDGSAVVVVLNRSSKDVPLTIKDPAVGFLETISPGYSIHTYLWHRQ
modifications: His8 tag
B1 registered an IC50 in data set [1] of 17 nM.

B2: F31Y: recombinant human β-glucocerebrosidase variant R495H/F31Y, S2 cells; Seq. Id. No. 5 (protein, listed as Homo sapiens)
chain: ARPCIPKSFGYSSVVCVCNATYCDSFDPPTYPALGTFSRYESTRSGRRMELSMGPIQANHTGTGLLLTLQPEQKFQKVKGFGGAMTDAAALNILALSPPAQNLLLKSYFSEEGIGYNIIRVPMASCDFSIRTYTYADTPDDFQLHNFSLPEEDTKLKIPLIHRALQLAQRPVSLLASPWTSPTWLKTNGAVNGKGSLKGQPGDIYHQTWARYFVKFLDAYAEHKLQFWAVTAENEPSAGLLSGYPFQCLGFTPEHQRDFIARDLGPTLANSTHHNVRLLMLDDQRLLLPHWAKVVLTDPEAAKYVHGIAVHWYLDFLAPAKATLGETHRLFPNTMLFASEACVGSKFWEQSVRLGSWDRGMQYSHSIITNLLYHVVGWTDWNLALNPEGGPNWVRNFVDSPIIVDITKDTFYKQPMFYHLGHFSKFIPEGSQRVGLVASQKNDLDAVALMHPDGSAVVVVLNRSSKDVPLTIKDPAVGFLETISPGYSIHTYLWHRQ
notes: recombinant human β-glucocerebrosidase variant R495H/F31Y, S2 cells; Id; No. 5
The molecule B2 showed an IC50 in data set [1] of 28 ± 3 nM. Moreover, the “residual GCase activity after heat inactivation” value (“residual GCase activity” for short) in data set [2] (10 min incubation) is reported as about 27%.

B3: L34Q: recombinant human β-glucocerebrosidase variant R495H/L34Q, S2 cells; Seq. Id. No. 6 (protein, listed as Homo sapiens)
chain: ARPCIPKSFGYSSVVCVCNATYCDSFDPPTFPAQGTFSRYESTRSGRRMELSMGPIQANHTGTGLLLTLQPEQKFQKVKGFGGAMTDAAALNILALSPPAQNLLLKSYFSEEGIGYNIIRVPMASCDFSIRTYTYADTPDDFQLHNFSLPEEDTKLKIPLIHRALQLAQRPVSLLASPWTSPTWLKTNGAVNGKGSLKGQPGDIYHQTWARYFVKFLDAYAEHKLQFWAVTAENEPSAGLLSGYPFQCLGFTPEHQRDFIARDLGPTLANSTHHNVRLLMLDDQRLLLPHWAKVVLTDPEAAKYVHGIAVHWYLDFLAPAKATLGETHRLFPNTMLFASEACVGSKFWEQSVRLGSWDRGMQYSHSIITNLLYHVVGWTDWNLALNPEGGPNWVRNFVDSPIIVDITKDTFYKQPMFYHLGHFSKFIPEGSQRVGLVASQKNDLDAVALMHPDGSAVVVVLNRSSKDVPLTIKDPAVGFLETISPGYSIHTYLWHRQ
notes: recombinant human β-glucocerebrosidase variant R495H/L34Q, S2 cells; Id; No. 6
Turning to B3, in data set [1], the IC50 came to 22 ± 4 nM. Also, the “residual GCase activity” value in data set [2] (10 min incubation) is given as about 27%.

B4: K321N: Amicus single mutant hGCase R495H/K321N produced in S2 cells; Seq. Id. No. 2 (protein, listed as Homo sapiens)
chain: ARPCIPKSFGYSSVVCVCNATYCDSFDPPTFPALGTFSRYESTRSGRRMELSMGPIQANHTGTGLLLTLQPEQKFQKVKGFGGAMTDAAALNILALSPPAQNLLLKSYFSEEGIGYNIIRVPMASCDFSIRTYTYADTPDDFQLHNFSLPEEDTKLKIPLIHRALQLAQRPVSLLASPWTSPTWLKTNGAVNGKGSLKGQPGDIYHQTWARYFVKFLDAYAEHKLQFWAVTAENEPSAGLLSGYPFQCLGFTPEHQRDFIARDLGPTLANSTHHNVRLLMLDDQRLLLPHWAKVVLTDPEAAKYVHGIAVHWYLDFLAPANATLGETHRLFPNTMLFASEACVGSKFWEQSVRLGSWDRGMQYSHSIITNLLYHVVGWTDWNLALNPEGGPNWVRNFVDSPIIVDITKDTFYKQPMFYHLGHFSKFIPEGSQRVGLVASQKNDLDAVALMHPDGSAVVVVLNRSSKDVPLTIKDPAVGFLETISPGYSIHTYLWHRQ
notes: Amicus single mutant hGCase R495H/K321N produced in S2 cells; Id; No. 2
Consider B4, for which, in data set [1], the IC50 is 28 ± 3 nM. In addition, the “residual activities after 5 and 10 min of incubation (in words)” value in data set [2] is reported as “significantly higher residual activities”.

B5: K321N/H145L: Amicus double mutant hGCase R495H/K321N/H145L produced in S2 cells; Seq. Id. No. 3 (protein, listed as Homo sapiens)
chain: ARPCIPKSFGYSSVVCVCNATYCDSFDPPTFPALGTFSRYESTRSGRRMELSMGPIQANHTGTGLLLTLQPEQKFQKVKGFGGAMTDAAALNILALSPPAQNLLLKSYFSEEGIGYNIIRVPMASCDFSIRTYTYADTPDDFQLLNFSLPEEDTKLKIPLIHRALQLAQRPVSLLASPWTSPTWLKTNGAVNGKGSLKGQPGDIYHQTWARYFVKFLDAYAEHKLQFWAVTAENEPSAGLLSGYPFQCLGFTPEHQRDFIARDLGPTLANSTHHNVRLLMLDDQRLLLPHWAKVVLTDPEAAKYVHGIAVHWYLDFLAPANATLGETHRLFPNTMLFASEACVGSKFWEQSVRLGSWDRGMQYSHSIITNLLYHVVGWTDWNLALNPEGGPNWVRNFVDSPIIVDITKDTFYKQPMFYHLGHFSKFIPEGSQRVGLVASQKNDLDAVALMHPDGSAVVVVLNRSSKDVPLTIKDPAVGFLETISPGYSIHTYLWHRQ
notes: Amicus double mutant hGCase R495H/K321N/H145L produced in S2 cells; Id; No. 3
The molecule B5 showed an IC50 in data set [1] of 35 ± 11 nM. Moreover, in data set [2], the “residual activities after 5 and 10 min of incubation (in words)” value is recorded as “significantly higher residual activities”.

B6: M53T/P55T: recombinant human β-glucocerebrosidase variant R495H/M53T/P55T, S2 cells; Seq. Id. No. 7 (protein, listed as Homo sapiens)
chain: ARPCIPKSFGYSSVVCVCNATYCDSFDPPTFPALGTFSRYESTRSGRRMELSTGTIQANHTGTGLLLTLQPEQKFQKVKGFGGAMTDAAALNILALSPPAQNLLLKSYFSEEGIGYNIIRVPMASCDFSIRTYTYADTPDDFQLHNFSLPEEDTKLKIPLIHRALQLAQRPVSLLASPWTSPTWLKTNGAVNGKGSLKGQPGDIYHQTWARYFVKFLDAYAEHKLQFWAVTAENEPSAGLLSGYPFQCLGFTPEHQRDFIARDLGPTLANSTHHNVRLLMLDDQRLLLPHWAKVVLTDPEAAKYVHGIAVHWYLDFLAPAKATLGETHRLFPNTMLFASEACVGSKFWEQSVRLGSWDRGMQYSHSIITNLLYHVVGWTDWNLALNPEGGPNWVRNFVDSPIIVDITKDTFYKQPMFYHLGHFSKFIPEGSQRVGLVASQKNDLDAVALMHPDGSAVVVVLNRSSKDVPLTIKDPAVGFLETISPGYSIHTYLWHRQ
notes: recombinant human β-glucocerebrosidase variant R495H/M53T/P55T, S2 cells; Id; No. 7
Take B6: the IC50 in data set [1] was ~40 nM and 40 nM. Further, the “residual GCase activity” value in data set [2] (5 min incubation) is given as 65%; in data set [2] (10 min incubation), 27%.
